The text below walks through data of patent US12385058B2, “Herbicide tolerance protein, encoding gene thereof and use thereof” (Beijing Dabeinong Biotechnology Co., Ltd., priority 2018, dated 2025).

Sequences and labels used below:
B1: ALT02M1: herbicide tolerant protein, SEQ ID NO: 23; ALT02 with glycine to alanine at position 140 (protein)
chain: METDNVELAQSKRKVVLAEQGSFYIGGRTVTGPGKFDPSKPVIPYSNEGATFYINQMYVNFQAPVRPRGLPLVFWHGGGLTGHIWESTPDGRPGFQTLFVQDRHTVYTIDQPGRGRGNIPTFNGPFGQLEEESIVNTVTANSSKEGAWVRDRLGPAPGQFFENSQFPRGYEDNYFKEMGFSPSISSDEIVDAVVKLVTHIGPCVLVTHSASGVLGMRVATHAKNVRGIVAYEPATSIFPKGKVPEIPPLADKKSQIFPPFEIQESYFKKLAKIPIQFVFGDNIPKNPKSAYWFLDWWRVTRYAHSLSLEAINKLGGQASLLDLPTAGLRGNTHFPFTDRNNVQVASLLSDFLGKHGLDQNESKLAAALE
modifications: the amino acid sequence of ALT02M1
B2: ALT02M2: herbicide tolerant protein, SEQ ID NO: 27; ALT02 with serine to valine at position 142 (protein)
chain: B1 chain with A140G, S142V
modifications: the amino acid sequence of the ALT02M2
B3: ALT01M1: herbicide tolerant protein, SEQ ID NO: 7; ALT01 with glycine to alanine at position 176 (protein)
chain: METDKKTGTSRRSFVKAAGTGAIGIATLPLSTATAFAETDNVELAQSKRKVVLAEQGSFYIGGRTVTGPGKFDPSKPVIPYSNEGATFYINQMYVNFQAPVRPRGLPLVFWHGGGLTGHIWESTPDGRPGFQTLFVQDRHTVYTIDQPGRGRGNIPTFNGPFGQLEEESIVNTVTANSSKEGAWVRDRLGPAPGQFFENSQFPRGYEDNYFKEMGFSPSISSDEIVDAVVKLVTHIGPCVLVTHSASGVLGMRVATHAKNVRGIVAYEPATSIFPKGKVPEIPPLADKKSQIFPPFEIQESYFKKLAKIPIQFVFGDNIPKNPKSAYWFLDWWRVTRYAHSLSLEAINKLGGQASLLDLPTAGLRGNTHFPFTDRNNVQVASLLSDFLGKHGLDQNES
modifications: the amino acid sequence of the herbicide tolerant protein ALT01M1
B4: ALT01M3: herbicide tolerant protein, SEQ ID NO: 15; ALT01 mutated at positions 80, 81, 176, 178 and 182 (protein)
chain: B3 chain with P80R, Y81A, S178V, G182R
modifications: the amino acid sequence of the herbicide tolerant protein ALT01M3
B5: ALT01M2: herbicide tolerant protein, SEQ ID NO: 11; ALT01 with serine to valine at position 178 (protein)
chain: B3 chain with A176G, S178V
modifications: the amino acid sequence of the herbicide tolerant protein ALT01M2
B6: ALT02-02: nucleotide sequence SEQ ID NO: 22 encoding ALT02, based on maize codon usage bias (nucleic acid)
DNA: ATGGAGACTGATAACGTGGAGCTGGCGCAGAGCAAGAGGAAGGTGGTTCTGGCTGAGCAGGGGTCGTTCTACATTGGGGGGCGGACTGTGACCGGGCCCGGCAAGTTCGACCCATCGAAGCCTGTCATTCCGTACTCTAACGAGGGCGCTACGTTCTACATCAACCAGATGTACGTGAATTTCCAGGCTCCCGTCCGCCCAAGGGGCCTCCCACTGGTGTTCTGGCACGGCGGGGGCCTGACAGGCCATATCTGGGAGTCCACTCCAGATGGCCGCCCAGGGTTCCAGACACTCTTCGTTCAGGACAGGCACACAGTGTACACTATTGATCAGCCAGGGAGGGGCAGGGGGAACATCCCTACCTTCAATGGCCCATTCGGGCAGCTGGAGGAGGAGTCCATCGTGAACACCGTCACGGGCAATTCCAGCAAGGAGGGGGCTTGGGTCAGGGACCGGCTCGGCCCGGCCCCAGGGCAGTTCTTCGAGAACTCTCAGTTCCCCCGGGGCTACGAGGATAATTACTTCAAGGAGATGGGCTTCTCACCATCCATCTCGTCTGACGAGATTGTCGATGCCGTGGTCAAGCTCGTTACCCACATCGGCCCTTGCGTTCTGGTGACGCATAGCGCTTCGGGCGTCCTCGGGATGAGGGTTGCTACACATGCGAAGAACGTTCGCGGCATCGTGGCTTACGAGCCGGCCACTTCCATTTTCCCCAAGGGCAAGGTGCCAGAGATCCCACCACTGGCCGACAAGAAGTCACAGATCTTCCCACCTTTCGAGATTCAGGAGTCCTACTTCAAGAAGCTCGCTAAGATCCCCATTCAGTTCGTGTTCGGCGACAACATTCCTAAGAATCCGAAGAGCGCGTACTGGTTCCTGGATTGGTGGCGCGTCACGCGCTACGCGCACTCTCTCTCACTGGAGGCTATCAACAAGCTCGGGGGCCAGGCCTCGCTCCTGGACCTCCCTACCGCTGGCCTGAGGGGGAACACCCATTTCCCGTTCACGGATCGGAACAATGTCCAGGTTGCGTCCCTCCTGAGCGATTTCCTCGGCAAGCACGGGCTGGATCAGAATGAGTCTAAGCTCGCTGCGGCGCTGGAGTGA
modifications: the ALT02-02 nucleotide sequence encoding the amino acid sequence corresponding to the herbicide tolerant protein ALT02 and based on the maize codon usage bias

Where a chain is given by its changes, count along the chain named.

Test system in one data set: not given
Experiment: not given
It counts as biochemical.
Conditions: not given
As to the method:
(§1) Each reaction was timed beginning with the addition of reactive enzyme, and was terminated with 1 mL of dichloromethane. The organic phase after delamination was dehydrated with anhydrous sodium sulfate.
(§2) The above dehydrated reaction solution was blown dry with nitrogen and filtered by adding 1 mL of methanol, and 20 μL of the filtrate was subjected to liquid chromatography-mass spectrometry (LC-MS). High performance liquid chromatography (HPLC) conditions were as follows: mobile phase being methanol:water (80:20, V/V), Zorbax XDB-C18 chromatographic column (3.5 μm, 2.1×50 mm, Agilent, USA), column temperature being room temperature, UV detector, with a detection wavelength of 255 nm, a sample injection volume of 20 μL, and a flow rate of 0.25 mL/min. The primary ion mass spectrometry conditions were as follows: ion detection mode being multi-reactive ion detection; ion polarity being negative ion; ionization mode being electrospray ionization; a capillary voltage of 4000 volts; a dry gas temperature of 330° C., a flow rate of 10 L/min, an atomizing gas pressure of 35 psi, a collision voltage of 135 volts; and a mass scan range of 300-500 m/z. The secondary ion mass spectrometry conditions were as follows: a collision voltage of 90 volts; a mass scanning range of 30-400 m/z, and other conditions being the same as those of the primary ion mass spectrometry. It was identified by LC-MS that the metabolite of thifensulfuron-methyl was thiophene sulfonic acid, and the metabolite of metsulfuron-methyl, chlorimuron-ethyl, bensulfuron-methyl, sulfometuron-methyl or tribenuron-methyl was its corresponding sulfonic acid. The amount of the generated thiophene sulfonic acid (metabolite) was detected using high performance liquid chromatography (HPLC).
As to B1, the “efficiency of degrading bensulfuron-methyl, fold of ALT02” value was found to be 2.3 fold and the “efficiency of degrading thifensulfuron-methyl, fold of ALT02” value came to 3.3 fold.

Take B2: the “efficiency of degrading bensulfuron-methyl, fold of ALT02” value amounted to 1.4 fold and the “efficiency of degrading thifensulfuron-methyl, fold of ALT02” value was 3.9 fold.

For the molecule B3, the “efficiency of degrading bensulfuron-methyl, fold of ALT01” value worked out at 2.3 fold and the “efficiency of degrading thifensulfuron-methyl, fold of ALT01” value is reported as 3.3 fold.

Turning to B4, the “efficiency of degrading chlorimuron-ethyl, fold of ALT01” value is given as 14.2 fold and the “efficiency of degrading metsulfuron-methyl, fold of ALT01” value stood at 2.1 fold.

For the molecule B5, the “efficiency of degrading bensulfuron-methyl, fold of ALT01” value was 1.4 fold and the “efficiency of degrading thifensulfuron-methyl, fold of ALT01” value stood at 3.9 fold.

Staying with this data set, now noted: 0.2 μg enzyme, 0.2 mM substrate, pH 7.0, 30° C., 20 min.
Take B1: the “specific enzyme activity, bensulfuron-methyl” value is 4.1 µmol/min/mg; the “specific enzyme activity, chlorimuron-ethyl” value turned out to be 10.9 µmol/min/mg; the “specific enzyme activity, metsulfuron-methyl” value was found to be 2.3 µmol/min/mg; the “specific enzyme activity, thifensulfuron-methyl” value is 94.4 µmol/min/mg. Further, the “specific enzyme activity, tribenuron-methyl” value came out at 3.3 µmol/min/mg.

Take B2: the “specific enzyme activity, bensulfuron-methyl” value came to 2.5 µmol/min/mg; the “specific enzyme activity, chlorimuron-ethyl” value was found to be 9.5 µmol/min/mg; the “specific enzyme activity, metsulfuron-methyl” value is 1.3 µmol/min/mg; the “specific enzyme activity, thifensulfuron-methyl” value was 111.3 µmol/min/mg. Also, the “specific enzyme activity, tribenuron-methyl” value came to 11.3 µmol/min/mg.

Take B3: the “specific enzyme activity, bensulfuron-methyl” value turned out to be 3.9 µmol/min/mg; the “specific enzyme activity, chlorimuron-ethyl” value was found to be 10.4 µmol/min/mg; the “specific enzyme activity, metsulfuron-methyl” value was determined as 2.2 µmol/min/mg; the “specific enzyme activity, thifensulfuron-methyl” value amounted to 89.9 µmol/min/mg. In addition, the “specific enzyme activity, tribenuron-methyl” value was 3.1 µmol/min/mg.

With B4, the “specific enzyme activity, bensulfuron-methyl” value came out at 0.68 µmol/min/mg; the “specific enzyme activity, chlorimuron-ethyl” value is 38.4 µmol/min/mg; the “specific enzyme activity, metsulfuron-methyl” value was 4.2 µmol/min/mg; the “specific enzyme activity, thifensulfuron-methyl” value turned out to be 17.8 µmol/min/mg. Further, the “specific enzyme activity, tribenuron-methyl” value stood at 3.3 µmol/min/mg.

As for B5, the “specific enzyme activity, bensulfuron-methyl” value is 2.4 µmol/min/mg; the “specific enzyme activity, chlorimuron-ethyl” value is 9.0 µmol/min/mg; the “specific enzyme activity, metsulfuron-methyl” value was found to be 1.2 µmol/min/mg; the “specific enzyme activity, thifensulfuron-methyl” value came out at 106.0 µmol/min/mg. Besides, the “specific enzyme activity, tribenuron-methyl” value was found to be 10.8 µmol/min/mg.

Test system in the next data set: not listed separately
Briefly: Degradation of sulfometuron-methyl by purified herbicide tolerant proteins (enzymatic activity, HPLC). The format is biochemical. As to conditions: 0.2 μg enzyme, 0.2 mM substrate, pH 7.0, 30° C., 20 min. The procedure: as §1, §2
B1: the “specific enzyme activity, sulfometuron-methyl” value came out at 5.7 µmol/min/mg.

With B2, the “specific enzyme activity, sulfometuron-methyl” value was found to be 3.7 µmol/min/mg.

For B3, the “specific enzyme activity, sulfometuron-methyl” value is 5.4 µmol/min/mg.

B4: the “specific enzyme activity, sulfometuron-methyl” value was determined as 1.1 µmol/min/mg.

Take B5: the “specific enzyme activity, sulfometuron-methyl” value came to 3.5 µmol/min/mg.

For a further data set, the system named is maize plants. Briefly: Herbicide tolerance of transgenic maize T1 plants (spraying, damage degree). It counts as in vivo. As to conditions: sprayed with tribenuron-methyl 144 g ai/ha, eight-fold field concentration. The procedure: The degree of damage caused by the herbicide was measured for each plant according to the plant growth status 3 days after spraying (3 DAT), 7 days after spraying (7 DAT), 14 days after spraying (14 DAT) and 21 days after spraying (21 DAT): a growth status equivalent to that of the untreated plants is defined as having a damage degree of 0%; the case where leaves are locally chlorotic and yellow but the normal plant growth is substantially not affected is defined as having a damage degree of 50%; and the case where the whole plant is purple and dying is defined as having a damage degree of 100%. The maize plants into which the ALT02M1-02 nucleotide sequence was introduced were of three strains in total (S15, S16 and S17), the maize plants into which the ALT02M2-02 nucleotide sequence was introduced were of three strains in total (S18, S19 and S20), the maize plants into which the ALT02M3-02 nucleotide sequence was introduced were of three strains in total (S21, S22 and S23), the maize plants into which the ALT02-02 nucleotide sequence was introduced were of three strains in total (S24, S25 and S26), the control maize plants were of two strains in total (S27 and S28), and the wild-type maize plants were of one strain in total (CK2); and 10-15 plants were selected from each strain and tested.
On to B6, for which the “herbicide tolerance imparted to transgenic maize plants” value is given as “impart transgenic maize plants with the tolerance to benzenesulfonic acid”.
